Source: patent US20220204613A1 (D 10 THERAPEUTICS, published 2022)
Values belong to the molecule of their own block, whether it stands above or below them.

Legend:
human CD47 protein [1] = target: T1, human CD47 protein (human, UniProt Q08722 19-139, limits assumed); assay: ELISA on human CD47 protein, antibody 1.85E-01 ug/ml
T1 construct: also called human CD47 antigen

human CD47 protein [2] = target: T1, human CD47 protein; assay: ELISA on human CD47 protein, antibody 7.62E-04 ug/ml
human CD47 protein [3] = target: T1, human CD47 protein; assay: ELISA on human CD47 protein, antibody 15 ug/ml
human CD47 protein [4] = target: T1, human CD47 protein; assay: ELISA on human CD47 protein, antibody 2.06E-02 ug/ml
human CD47 protein [5] = target: T1, human CD47 protein; assay: ELISA on human CD47 protein, antibody 5.00E+00 ug/ml
human CD47 protein [6] = target: T1, human CD47 protein; assay: ELISA on human CD47 protein, OD450nm against log Ab conc; EC50 row of the table drawn under the plot; fit of the flat control curve
human CD47 protein [7] = target: T1, human CD47 protein; assay: ELISA on human CD47 protein, antibody 6.86E-03 ug/ml
human CD47 protein [8] = target: T1, human CD47 protein; assay: ELISA on human CD47 protein, antibody 6.17E-02 ug/ml
human CD47 protein [9] = target: T1, human CD47 protein; assay: ELISA on human CD47 protein, antibody 5.56E-01 ug/ml
human CD47 protein [10] = target: T1, human CD47 protein; assay: ELISA on human CD47 protein, antibody 45 ug/ml
human CD47 protein [11] = target: T1, human CD47 protein; assay: ELISA on human CD47 protein, antibody 1.67E+00 ug/ml
human CD47 protein [12] = target: T1, human CD47 protein; assay: ELISA on human CD47 protein, antibody 2.29E-03 ug/ml
human CD47 protein [13] = target: T1, human CD47 protein; assay: ELISA on human CD47 protein, OD450nm against log Ab conc; EC50 row of the table drawn under the plot; the curve has no lower plateau in the range shown
human CD47 protein [14] = target: T1, human CD47 protein; assay: ELISA on human CD47 protein, antibody 0 ug/ml (blank)
human CD47 protein [15] = target: T1, human CD47 protein; assay: SPR Biacore, supernatant antibody Fc-captured, human CD47 analyte 5 nM
Description: Production and affinity ranking of humanized antibodies. The designed plasmids of heavy chain and light chain were sent for 3 mL transfection following GenScript's SOP. For affinity ranking, Antibodies were captured on the sensor chip through Fc capture method. Human CD47 protein was used as the analyte. The surface was regenerated before the injection of another antibody. The process was repeated until all antibodies were analyzed. The off-rates of antibodies were obtained from fitting the experimental data locally to 1:1 interaction model using the Biacore® T200/8K evaluation software. The antibodies were ranked by their dissociation rate constants (off-rates, kd).

human CD47 protein [16] = target: T1, human CD47 protein; assay: SPR Biacore, purified IgG Fc-captured, human CD47 analyte 0.3125-10 nM
From the text: Affinity measurement of purified humanized IgGs. The affinity of purified antibody binding to human CD47 was individually determined using a Surface Plasmon Resonance (SPR) biosensor, Biacore® T200/8K (GE Healthcare). Antibodies were captured on the sensor chip through Fc capture method. Human CD47 protein was used as the analyte. The data of dissociation (kd) and association (ka) rate constants were obtained using Biacore T200/8K evaluation software. The equilibrium dissociation constants (KD) were calculated from the ratio of kd over ka.

T1 sequence (Q08722 19-139 limits assumed): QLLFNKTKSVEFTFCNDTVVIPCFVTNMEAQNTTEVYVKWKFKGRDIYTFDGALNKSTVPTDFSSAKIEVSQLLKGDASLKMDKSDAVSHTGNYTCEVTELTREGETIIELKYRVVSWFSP

ELISA signal (human CD47 protein [1]): 0.551 | ELISA signal (human CD47 protein [2]): 0.211 | ELISA signal (human CD47 protein [3]): 0.49 | ELISA signal (human CD47 protein [4]): 0.48 | ELISA signal (human CD47 protein [5]): 0.562 | EC50 (human CD47 protein [6]): 3.42 ng/mL | ELISA signal (human CD47 protein [7]): 0.387 | ELISA signal (human CD47 protein [8]): 0.445 | ELISA signal (human CD47 protein [9]): 0.553 | ELISA signal (human CD47 protein [10]): 0.543 | ELISA signal (human CD47 protein [11]): 0.454 | ELISA signal (human CD47 protein [12]): 0.287
Molecule: Isotype control (antibody)

ELISA signal (human CD47 protein [1]): 3.81 | ELISA signal (human CD47 protein [2]): 2.32 | EC50 (human CD47 protein [13]): 6.55 ng/mL | ELISA signal (human CD47 protein [3]): 3.87 | ELISA signal (human CD47 protein [4]): 3.33 | ELISA signal (human CD47 protein [5]): 3.78 | ELISA signal (human CD47 protein [14]): 0.086 | ELISA signal (human CD47 protein [7]): 2.98 | ELISA signal (human CD47 protein [8]): 3.73 | ELISA signal (human CD47 protein [9]): 3.8 | ELISA signal (human CD47 protein [10]): 3.83 | ELISA signal (human CD47 protein [11]): 3.71 | ELISA signal (human CD47 protein [12]): 2.68
B1: 32G8H6 (antibody, V domains shown)
VH: EVQLQQSGPELVKPGASVKLSCKASGYTFTSSVIHWVKQKPGQGLEWLGYINPYSDGTKFNEKCKIKATLTSDKSSSTAYMELSSLTSEDSAVYYCARGLIGTRYDSWFAYWGQGTLVTVSA
VL: DIQMTQNGSSLSASLGDRVTISCRTSQDINNYLNWYQQKQDGTVKLLIYYTSRLHSGVPSRFSGSGSGTDYSLTIRNLEQEDIATYFCQQGNTLPYTFGGGTKLEIK
notes: Mouse hybridoma antibody; also called parent mAb (32G8H6); 32G8H6 (mAb)

ELISA signal (human CD47 protein [1]): 0.475 | ELISA signal (human CD47 protein [2]): 0.255 | ELISA signal (human CD47 protein [3]): 1.39 | ELISA signal (human CD47 protein [4]): 0.342 | ELISA signal (human CD47 protein [5]): 0.918 | ELISA signal (human CD47 protein [14]): 0.251 | ELISA signal (human CD47 protein [7]): 0.44 | ELISA signal (human CD47 protein [8]): 0.435 | ELISA signal (human CD47 protein [9]): 0.56 | ELISA signal (human CD47 protein [10]): 1.95 | ELISA signal (human CD47 protein [11]): 0.663 | ELISA signal (human CD47 protein [12]): 0.276
B2: chimeric-VH+VL2 (antibody, human IgG4, V domains shown)
VH: B1 VH
VL: DIQMNQSPSSLSASLGDTITITCHASQNINVWLSWYQQKPGNIPKLLIYKASNLHTGVPSRFSGSGSGTGFTLTISSLQPEDIATYYCQQGQSYPLTFGAGTKLELK

ELISA signal (human CD47 protein [1]): 3.34 | ELISA signal (human CD47 protein [2]): 1.71 | Kd (human CD47 protein [15]): 0.34 nM | koff (human CD47 protein [15]): 0.00261 s⁻¹ | kon (human CD47 protein [15]): 7.69e+06 M⁻¹ s⁻¹ | ELISA signal (human CD47 protein [3]): 3.39 | ELISA signal (human CD47 protein [4]): 2.9 | ELISA signal (human CD47 protein [5]): 3.48 | ELISA signal (human CD47 protein [14]): 0.162 | ELISA signal (human CD47 protein [7]): 2.64 | ELISA signal (human CD47 protein [8]): 3.19 | ELISA signal (human CD47 protein [9]): 3.32 | ELISA signal (human CD47 protein [10]): 3.48 | ELISA signal (human CD47 protein [11]): 3.32 | Kd (human CD47 protein [16]): 0.482 nM | koff (human CD47 protein [16]): 0.00255 s⁻¹ | kon (human CD47 protein [16]): 5.3e+06 M⁻¹ s⁻¹ | ELISA signal (human CD47 protein [12]): 2.4
B3: chimeric-VH+VL-1 (antibody, human IgG4, V domains shown)
VH: B1 VH
VL: B1 VL
notes: also called chimeric antibody
